Blank lines part the entries; values can stand above or below the binder they belong to. Bridge positions count the residues as written; N and C are the ends. Ends that are not written are not given here.
Assays:
PCSK9 protein [1] = molecular target: T1, PCSK9 protein (UniProt Q8NBP7 31-692, limits assumed); assay: PCSK9-LDLR in vitro binding assay kit, OD450/540; peptide 50 µM, PCSK9 75 ng/mL; inhibition of PCSK9 binding to LDLR
T1 construct: Kit reagent; also called proprotein convertase subtilisin/kexin type 9

PCSK9 protein [2] = molecular target: T1, PCSK9 protein; assay: PCSK9-LDLR in vitro binding assay kit, OD450/540; peptide 100 µM; inhibition of PCSK9 binding to LDLR
Protocol: (§1) Solvent control: replace polypeptide with 5 μL solvent.
(§2) ^aThe concentration of samples in the table was 50 μM.

PCSK9 protein [3] = molecular target: T1, PCSK9 protein; assay: PCSK9-LDLR in vitro binding assay kit, OD450/540; peptide 10 µM; inhibition of PCSK9 binding to LDLR
Protocol: as §1, §2

[4] = molecular target: porcine pancreatic elastase (porcine, UniProt P00772 27-266); assay: elastase inhibition in vitro
Protocol: (§3) The substrates N-succinyl-Ala-Ala-Pro-Phe-p-nitroaniline (AAPFpNA), Nα—Benzoyl-L-arginine-4-nitroaniline hydrochloride (BApNA) and N-succinyl-[…] (AAApNA) are used in competitive binding reaction to determine the inhibitory activities against α-chymotrypsin, bovine trypsin, and porcine pancreatic elastase, respectively. Experiments for α-chymotrypsin and bovine trypsin inhibition were measured in 20 mM CaCl₂, 50 mM Tris-HCl buffer (pH 7.8), and that for porcine elastase inhibition was measured in 50 mM Tris-HCl buffer (pH 8.0). The concentration of the peptide was measured using optical density (OD) at 280 nm. The Michaelis constant (Kₘ) of the enzyme hydrolysis substrate is calculated from the initial rate of substrate hydrolysis at 405 nm. The absorbance value of the substrate was measured at 405 nm after complete hydrolysis. All data were processed using nonlinear regression.
(1) Added a total 190 μL of different concentrations of peptides (ECs) against elastase and reaction buffer (20 mM CaCl₂, 50 mM Tris-HCl buffer (pH 8.0)) into the pre-cold 96 well plate, followed by preheating at 37° C. for 5 min and centrifugated at 500 rpm for 1 min and allowed to stand for 4 minutes. […] Finally, added 2 μL of 100 mM AAApNA, and mixed by centrifugation at 500 rpm for 1 min. The plate was incubated at 37° C. for 60 min, and the absorbance value at 405 nm was measured. Three repetitions were made, and only reaction buffer and substrate were added in the blank control as the minimum absorption value (Min OD_{405 nm}); Only reaction buffer, enzyme and substrate were added in the negative control as the maximum absorption value (Max OD₄₀₅ nm). [0472] (2) In the 200 μL of reaction system, the final concentrations of elastase and AAApNA were 0.5 μM and 1 mM, respectively. [0473] (3) Data statistics

bovine trypsin [5] = molecular target: T2, bovine trypsin (bovine, UniProt P00760 24-246); assay: trypsin (50 nM) BApNA hydrolysis, OD405; peptide at 0.098 µM
Protocol: as §3
(§4) (1) Added a total 190 μL of reaction buffer (20 mM CaCl₂ and 50 mM Tris-HCl, pH 7.8) along with different concentrations of anti-trypsin peptides (BTs) into the pre-cooled 96-well plate, followed by preheating at 37° C., and spined down at 500 rpm for 5 min. Next added 10 μL of 1 μM trypsin, incubated at 37° C., and then spined down at 500 rpm for 10 min. Finally, added 5 μL of 50 mM BApNA, and mixed by centrifugation at 500 rpm for 1 min. […] The experiment was performed in triplicate. The blank control only contained the reaction buffer and the substrate as the minimum absorption value (Min OD_{405 nm}). The negative control only contained the reaction buffer, the enzyme and the substrate as the maximum absorption value (Max OD_{405 nm}). […] (2) In the reaction system of 205 μL, the final concentrations of trypsin and BApNA were 50 nM and 1.22 mM, respectively. [0456] (3) Data statistics

bovine trypsin [6] = molecular target: T2, bovine trypsin; assay: trypsin (50 nM) BApNA hydrolysis, OD405; peptide at 0.98 µM
bovine trypsin [7] = molecular target: T2, bovine trypsin; assay: trypsin (50 nM) BApNA hydrolysis, OD405; peptide at 0.0098 µM
Protocol: as §3, §4

bovine trypsin [8] = molecular target: T2, bovine trypsin; assay: trypsin (50 nM) BApNA hydrolysis, OD405; peptide at 0.00098 µM
bovine trypsin [9] = molecular target: T2, bovine trypsin; assay: trypsin (50 nM) BApNA hydrolysis, OD405; peptide at 0.98 µM; remark: listed apart in the source
Protocol: as §3, §4

bovine trypsin [10] = molecular target: T2, bovine trypsin; assay: trypsin (50 nM) BApNA hydrolysis, OD405; peptide at 0.00098 µM; remark: listed apart in the source
bovine trypsin [11] = molecular target: T2, bovine trypsin; assay: trypsin (50 nM) BApNA hydrolysis, OD405; peptide at 0.0098 µM; remark: listed apart in the source
bovine trypsin [12] = molecular target: T2, bovine trypsin; assay: trypsin (50 nM) BApNA hydrolysis, OD405; peptide at 97.56 µM
Protocol: as §3, §4

bovine trypsin [13] = molecular target: T2, bovine trypsin; assay: trypsin (50 nM) BApNA hydrolysis, OD405; peptide at 9.76 µM
bovine trypsin [14] = molecular target: T2, bovine trypsin; assay: trypsin (50 nM) BApNA hydrolysis, OD405; peptide at 0.098 µM; remark: listed apart in the source
bovine trypsin [15] = molecular target: T2, bovine trypsin; assay: trypsin (50 nM) BApNA hydrolysis, OD405; peptide at 9.76 µM; remark: listed apart in the source
Protocol: as §3, §4

Sequence of porcine pancreatic elastase (P00772 27-266 limits assumed): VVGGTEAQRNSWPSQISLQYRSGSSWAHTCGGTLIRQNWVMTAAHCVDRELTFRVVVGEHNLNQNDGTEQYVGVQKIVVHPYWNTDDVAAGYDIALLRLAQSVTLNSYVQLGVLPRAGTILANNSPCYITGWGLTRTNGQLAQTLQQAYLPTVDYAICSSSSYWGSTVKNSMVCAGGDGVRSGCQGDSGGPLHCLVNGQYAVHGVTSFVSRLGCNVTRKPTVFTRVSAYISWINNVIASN
T2 sequence (P00760 24-246): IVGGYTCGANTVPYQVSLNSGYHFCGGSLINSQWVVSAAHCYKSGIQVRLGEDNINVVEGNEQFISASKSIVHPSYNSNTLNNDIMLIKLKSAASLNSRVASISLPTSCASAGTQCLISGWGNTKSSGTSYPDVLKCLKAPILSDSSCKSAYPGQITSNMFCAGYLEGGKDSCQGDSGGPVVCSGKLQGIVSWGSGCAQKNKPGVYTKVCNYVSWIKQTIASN

B1: PCSK9_3EC (peptide)
peptide: ICTASIPPICQGTVFTSWEEALDWV
modifications: disulfide 2-10 (inferred)
notes: Contains an anti-elastase scaffold, with a disulfide bond between its two Cys
Inhibitory rate (%) (PCSK9 protein [1]): 99.6%

B5: PCSK9_3CH (peptide)
peptide: FCTYSIPPQCYGGTVFTSWEEALDWV
modifications: disulfide 2-10 (inferred)
notes: Contains an anti-chymotrypsin scaffold, with a disulfide bond between its two Cys
Inhibitory rate (%) (PCSK9 protein [1]): 99.2%

B8: PCSK9_5 (peptide)
peptide: WEEALDWVCGRATKSIPPICFGTVFTS
modifications: disulfide 9-20 (inferred)
notes: Hybrid with the anti-trypsin scaffold BT9; A disulfide bond joins the two Cys of the scaffold
Inhibitory rate (%) (PCSK9 protein [1]): 77.9%

B9: PCSK9_6 (peptide)
peptide: WEEYLDYVCGRATKSIPPICFGTVFTS
modifications: disulfide 9-20 (inferred)
notes: as for B8
Inhibitory rate (%) (PCSK9 protein [1]): 87%

B10: PCSK9_2EC (peptide)
peptide: TVFTSWEEALDWVGICTASIPPICQ-OH
modifications: disulfide 16-24 (inferred)
notes: as for B1
Inhibitory rate (%) (PCSK9 protein [2]): 100% | Inhibitory rate (%) (PCSK9 protein [3]): 73.1%

B11: EC12 (peptide)
peptide: LCTASIPPICQ
modifications: disulfide 2-10 (inferred)
binding result [4]: binds

B18: PCSK9_2CH (peptide)
peptide: TVFTSWEEALDWVGFCTYSIPPQCYG
modifications: disulfide 16-24 (inferred)
notes: as for B5
Inhibitory rate (%) (PCSK9 protein [1]): 100%

B20: PCSK9_5EC (peptide)
peptide: WEEALDWVGICTASIPPICQGTVFTS
modifications: disulfide 11-19 (inferred)
notes: as for B1
Inhibitory rate (%) (PCSK9 protein [2]): 95.3% | Inhibitory rate (%) (PCSK9 protein [3]): 85.2%

B22: PCSK9_5CH (peptide)
peptide: WEEALDWVGFCTYSIPPQCYGTVFTS
modifications: disulfide 11-19 (inferred)
notes: as for B5
Inhibitory rate (%) (PCSK9 protein [3]): 99.4%

B23: PCSK9_6CH (peptide)
peptide: WEEYLDYVGFCTYSIPPQCYGTVFTS
modifications: disulfide 11-19 (inferred)
notes: as for B5
Inhibitory rate (%) (PCSK9 protein [2]): 93.7% | Inhibitory rate (%) (PCSK9 protein [3]): 75.3%

B25: BT25 (peptide)
peptide: CGTATKSIPPICF
modifications: disulfide 1-12 (inferred)
notes: synthetic
Residual trypsin activity (%) (bovine trypsin [5]): 100% | Residual trypsin activity (%) (bovine trypsin [6]): 49.7% | Residual trypsin activity (%) (bovine trypsin [7]): 99.6% | Residual trypsin activity (%) (bovine trypsin [8]): 101% | Residual trypsin activity (%) (bovine trypsin [9]): 49.7% | Residual trypsin activity (%) (bovine trypsin [10]): 101% | Residual trypsin activity (%) (bovine trypsin [11]): 99.6% | Residual trypsin activity (%) (bovine trypsin [12]): 0.2% | Residual trypsin activity (%) (bovine trypsin [13]): 1% | Residual trypsin activity (%) (bovine trypsin [14]): 100% | Residual trypsin activity (%) (bovine trypsin [15]): 1%

B26: BT26 (peptide)
peptide: CGRAAKSIPPICF
modifications: disulfide 1-12 (inferred)
notes: synthetic
Residual trypsin activity (%) (bovine trypsin [5]): 100% | Residual trypsin activity (%) (bovine trypsin [6]): 94.5% | Residual trypsin activity (%) (bovine trypsin [7]): 99.5% | Residual trypsin activity (%) (bovine trypsin [9]): 94.5% | Residual trypsin activity (%) (bovine trypsin [11]): 99.5% | Residual trypsin activity (%) (bovine trypsin [12]): 0.1% | Residual trypsin activity (%) (bovine trypsin [13]): 0.4% | Residual trypsin activity (%) (bovine trypsin [14]): 100% | Residual trypsin activity (%) (bovine trypsin [15]): 0.4%

Continued, values first:

Inhibitory rate (%) (PCSK9 protein [2]): 101% | Inhibitory rate (%) (PCSK9 protein [3]): 94.3%
B2: PCSK9_9EC (peptide)
peptide: TVFTSGICTASIPPICQWEEYLDWV
modifications: disulfide 8-16 (inferred)
notes: as for B1

Inhibitory rate (%) (PCSK9 protein [1]): 93.9%
B3: PCSK9_9 (peptide)
peptide: TVFTSGRCTKSIPPICFWEEYLDWV
modifications: disulfide 8-16 (inferred)
notes: Hybrid with the anti-trypsin scaffold BT45; A disulfide bond joins the two Cys of the scaffold

Inhibitory rate (%) (PCSK9 protein [1]): 3.6%
B4: PCSK9_11 (peptide)
peptide: GTNEALDNNCGRATKSIPPICFVANDLK
modifications: disulfide 10-21 (inferred)

Inhibitory rate (%) (PCSK9 protein [1]): -8.7%
B6: PCSK9_14 (peptide)
peptide: GTNEALDNNCGRATKSIPPICFGTVFTS
modifications: disulfide 10-21 (inferred)

Inhibitory rate (%) (PCSK9 protein [2]): 102% | Inhibitory rate (%) (PCSK9 protein [3]): 98.4%
B7: PCSK9_9CH (peptide)
peptide: TVFTSGFCTYSIPPQCYGWEEYLDWV
modifications: disulfide 8-16 (inferred)
notes: as for B5

binding result [4]: binds
B12: EC18 (peptide)
peptide: LCTASIPPQCQ
modifications: disulfide 2-10 (inferred)

binding result [4]: binds
B13: EC23 (peptide)
peptide: ICTASIPPICQ
modifications: disulfide 2-10 (inferred)

binding result [4]: binds
B14: EC25 (peptide)
peptide: LCTASNPPICQ
modifications: disulfide 2-10 (inferred)

binding result [4]: binds
B15: EC1 (peptide)
peptide: LCTASIPPQCY
modifications: disulfide 2-10 (inferred)

binding result [4]: binds
B16: EC22 (peptide)
peptide: VCTASIPPICQ
modifications: disulfide 2-10 (inferred)

binding result [4]: binds
B17: EC29 (peptide)
peptide: YCTASIPPICQ
modifications: disulfide 2-10 (inferred)

Inhibitory rate (%) (PCSK9 protein [1]): 75.7%
B19: PCSK9_8 (peptide)
peptide: TVFTSGCGRATKSIPPICFSWEEYLDWV
modifications: disulfide 7-18 (inferred)
notes: as for B8

Inhibitory rate (%) (PCSK9 protein [2]): 99.4% | Inhibitory rate (%) (PCSK9 protein [3]): 96.7%
B21: PCSK9_6EC (peptide)
peptide: WEEYLDYVGICTASIPPICQGTVFTS
modifications: disulfide 11-19 (inferred)
notes: as for B1

Inhibitory rate (%) (PCSK9 protein [1]): 80.7%
B24: PCSK9_7 (peptide)
peptide: TVFTSGCGRATKSIPPICFWEEYLDWV
modifications: disulfide 7-18 (inferred)
notes: as for B8

Inhibitory rate (%) (PCSK9 protein [1]): -18.5%
B27: PCSK9_10 (peptide)
peptide: GTNEALDNNCGRATKSIPPICFYVANDLKI
modifications: disulfide 10-21 (inferred)

Inhibitory rate (%) (PCSK9 protein [1]): 44.7%
B28: PCSK9_12 (peptide)
peptide: WEEALDWVCGRATKSIPPICFGYVANDLKI
modifications: disulfide 9-20 (inferred)

— patent US20230416329A1 (INSTITUTE OF MATERIA MEDICA CHINESE ACADEMY OF MEDICAL …, published 2023)
